# Test results taken from the supplement of paper PMC9170038.
# How the values were obtained:
# MS2 coat protein [1] = test: apparent KD of MS2 coat protein, switch ON state; designed switch direction (-1 OFF switch, 1 ON switch): -1; higher = weaker reporter binding; conditions: FMN input: 0 or 200 uM; Eterna round: R93 (includes R88 designs)
# Method in brief: (§1)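 Values are apparent KD, taken as the median for each design of fits to normalised binding curves from individual clusters. The designed RNA switches were transcribed on-chip from Illumina sequencing clusters and exposed to SNAP-549-labelled MS2 coat protein at twofold increasing amounts from 0.7 or 1.5 nM to 3 µM. Titration used 100 mM Tris-HCl pH 7.5, 80 mM KCl and 4 mM MgCl2, without or with constant ligand.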
# MS2 coat protein [2] = test: apparent KD of MS2 coat protein, switch OFF state (with FMN for OFF switches, without FMN for ON switches); designed switch direction (-1 OFF switch, 1 ON switch): -1; higher = weaker reporter binding; conditions: FMN input: 0 or 200 uM; Eterna round: R93 (includes R88 designs)
# Method in brief: as §1
Sequence,apparent KD of MS2 coat protein (MS2 coat protein [1]) [µM],apparent KD of MS2 coat protein (MS2 coat protein [2]) [µM]
GUGUACAGAGGAUAUACGGGAGCUAGGAAACUAGCAACCUCACAUGAGGAUCACCCAUGUAGAAGGCUGUACAC [Ex2: 752],0.159,0.799
AAAAAGGAAGGAUAUACGAACAUGUCGAAAGACGUGAAGGGACAUGAGGAUCACCCAUGUAGAAGGUUCAAAAA [Mat - Exclusion 2 - JL mod - D80],0.0336,0.0193
AUAAAUCGAGGAUAUACAUGAGGAUCACCCAUGUAAAAAAAAAAAAAAUCCUCAGGAAGUAGAAGGCGAAAUAA [JR_Exc003_Sub018],0.0117,0.0233
AAGAAGUCAGGAUAUACUAAAGAAAUAAAAAGAAAGAAAGAACAUGAGGAUCACCCAUGUAGAAGGGACAAGAA [Sewadjare Mentuhotep V],0.0674,0.0317
AAAGGACGAGGAUAUACAUGAGGAUCACCCAUGUAAGAAGCAUAAUAAAAUAACUUAUGUAGAAGGCGUCCAAA [Mat - Exclusion 3 - Eli mod - D94],0.026,0.069
GAGUAAGGAGGAUAUACAUGAGGAUCACCCAUGUAAAAAGGGAAAGUAGAAAAGUAGAGUAGAAGGCCUAUAGA [JR_Exc003_Sub1702],0.0704,0.0583
AAAAUGUCAGGAUAUGUACGAAAAAAUAAAAAAAUAAAAGUACAGAAGGGACAUGAGGAUCACCCAUGUCAGGG [EX4 392: Minimal 4],0.0979,0.0746
GCUGUCGAAGGAUAUACAUGAGGAUCACCCAUGUGAGAGAAAAAAGUGAGAAAGAAAAGUAGAAGGUCGGUAGG [salish99-ex3-97],0.0296,0.0357
CCAAGACAUGAGGAUCACCCAUGUGAGGAUAUAGGUGUAUGCAAAAAAAAGUUAAAAACUAGAAGGCACAGAAA [JR_Exc001_Sub306],0.0307,0.025
AAAAAAGGAGGAUAUACGAACAUGUCAAAAGACGUGAAGGGACAUGAGGAUCACCCAUGUAGAAGGCUUAAAAA [JL Stem Breaker 4],0.0422,0.0192
UAAAGACAUGAGGAUCACCCAUGUGAGGAUAUCGGAGAUGACGGAACAUCGAGUUCGGCGAGAAGGCGCAGGAA [JR_Exc001_Sub407],0.0301,0.0292
AAAAAACAUGAGGAUCACCCAUGUGAGGAUAUGCAAAACCCAAAUAAAAAGAGAAAAAGCAGAAGGCACAACAA [wbt round 1 mod 3],0.0157,0.0138
AAAAAACAUGAGGAUCACCCAUGUAAGGAUAUACCUAAAAAAAAAAAAAAAAAAAAUGGUAGAAGGUACAAAAA [excalibur12],0.0281,0.0675
AAAGGUACAGGAUAUGCGUGGAAAAAGUGUAUUCACCAACGACAUGAGGAUCACCCAUGUAGAAGGGUACCAAA [Mod of wbt1 from round 1],0.0259,0.0318
AACAGUACAGGAUAUACAUGAGGAUCACCCAUGUAAAAAAAGGGUGGCGUACCACGAAGUAGAAGGGUACUGGA [Moding Maslow revisited (73) 11],0.187,0.0813
AACAGUACAGGAUAUACAUGAGGAUCACCCAUGUGAAAAUUAAGUGGAGUACCACAAGGUAGAAGGGUACUGGA [Mat - Exclusion 3 - Eli mod - D61],0.0277,0.101
AAUAAGUGAGGAUAUGGAAAUAAUAAAUAAAAUAAAAUAAACCAGAAGGCACAUGAGGAUCACCCAUGUAAAUA [JR_Exc004_Sub002],0.0244,0.022
GGAAAACAUGAGGAUCACCCAUGUAAGGAUAUGCAAAAAAGGAUAUAGAAGGAAAAAAGCAGAAGGUACAAAGG [salish99-ex1-23],0.0271,0.0698
AACUGACAUGAGGAUCACCCAUGUCAGGAUAUGAUUUGACGAAAAAAAACACGUCAUAUCAGAAGGGACAUGGA [Design 85: Sub-opt X],0.0237,0.0395
GAAAAGUCAGGAUAUACAGAAAAAAAAACGAAAAAAAAUCUGUAGAAGGGACAUGAGGAUCACCCAUGUAAAAA [Mat - Exclusion 4 - Mayanna - D122],0.0514,0.0376
AAGGUACGAGGAUAUACAUAGAUACAAACACAUGUGGAUGUACAUGAGGAUCACCCAUGUAGAAGGCGUAUAUA [AJ 22],0.0586,0.0847
ACCUAACAUGAGGAUCACCCAUGUGAGGAUAUAGACGUGAAUUAAACACGUAACAAAACUAGAAGGCACUGGGC [Erbeardi],0.0261,0.0168
GAGGAGUCAGGAUAUCGGGAAAGGUUGAGGAAGAGAAGAAGCGAGAAGGGACAUGAGGAUCACCCAUGUAGAAG [Default title],0.0467,0.0403

Sequence,apparent KD of MS2 coat protein (MS2 coat protein [1]) [µM],apparent KD of MS2 coat protein (MS2 coat protein [2]) [µM]
AGAAAGUCAGGAUAUGUGGAAAAAAUAAAAAAAAUAAAAACACAGAAGGGACAUGAGGAUCACCCAUGUUAAGA [Mat - Exclusion 4 - Mayanna - D139],0.0534,0.0303
AAGAAGUUAGGAUAUACAAAAUAAAAGAAAAGAAAGAAAGAACAUGAGGAUCACCCAUGUAGAAGGGACAAGAA [Nubkaure Amenemhat II],0.0592,0.0339
AGUCUGAGAGGAUAUACAUGGGAAAAAAAAGUAAGAUCCCUACAUGAGGAUCACCCAUGUAGAAGGCUCUGACA [Ex2 Design 143: Sub-opt 7],0.0274,0.0179
AUAGGCCUAGGAUAUACAUGAGGAUCACCCAUGUAAAUAAAUCGAUCAAAAUAAACGUGUAGAAGGAGGAAUAA [JR_Exc003_Sub205],0.0335,0.0383
CUUGUGUGAGGAUAUGUAAAAUGAAUAAGCAGUUCUAAAAGGCAGAAGGUACAUGAGGAUCACCCAUGUGAAAA [Inza],0.0393,0.0498
"AAAGGACGAGGAUAUACAUGAGGAUCACCCAUGUAAAAAACAUAACAAAAGAACUUAUGUAGAAGGCGUCCAAA [69%, Moding Meechl, 2]",0.0544,0.403
AAAAAACAUGAGGAUCACCCAUGUAAGGAUAUGCGAAAAUAAAAUAAAAUAAAAUAAAGCAGAAGGUACAAAAG [Mat - Exclusion 1 - Eli mod - D3],0.0288,0.0495
AAGAUGUCAGGAUAUACAUAAAUAAAAAAUUAUGUUAAAACACAUGAGGAUCACCCAUGUAGAAGGGACAACAA [AJ 6],0.0364,0.0207
AGUAUCACAGGAUAUACAUAGGUGAAAAAAGUAAAUCCACUACAUGAGGAUCACCCAUGUAGAAGGGUGAUACA [Ex2 Design 177: Random 4B],0.0699,0.0622
CGCAAGUCAGGAUAUUCGACAGGUAAAUCAGUGGAUCAGAAGGAGAAGGGACAUGAGGAUCACCCAUGUAUGUA [JR_Exc004_Sub407],0.0494,0.0231
AACAGUACAGGAUAUACAUGAGGAUCACCCAUGUCACAGAAAUAAAACAAAAAUAAAAGUAGAAGGGUACUGGA [Ruby 41],0.0312,0.0367
UCCUCACAUGAGGAUCACCCAUGUGAGGAUAUGUACAUCAGGAAAAAAAAACUGAUGUACAGAAGGCACAUGGA [Design 9: Super Stable G-C 2],0.0159,0.0112
GAAAAUGGAGGAUAUACAUGAGGAUCACCCAUGUGUAAAAAAAAUUACACAAAAGAAAGUAGAAGGCCAUAAAA [Mat - Exclusion 3 - Mayanna mod - D107],0.0664,0.174
AACUGACAUGAGGAUCACCCAUGUCAGGAUAUGAUAUGUAAAAAAAAAAAAAUACUUAUCAGAAGGGACAUGGG [Design 40: Sub-opt AB],0.0153,0.0154
UACAGACAUGAGGAUCACCCAUGUGAGGAUAUUCAUAACGAUAUUACAAGUAUGACAGGAAGAAGGCACAGCAA [JR_Exc001_Sub010],0.045,0.0475
AAAAAGGUAGGAUAUACAUGAGGAUCACCCAUGUGAAAAGAAAAUAAGAAAAGAAAGUGUAGAAGGACCAAAAA [JL JSci Mod In the Red],0.033,0.0441
AUCAUGUUAGGAUAUAUAAGAAAAGAAAAGAAAGAAAAGAAAUAGAAGGAACAUGAGGAUCACCCAUGUAAGAA [EteRNA is fun!],0.0175,0.0231
AGGAAACAUGAGGAUCACCCAUGUGAGGAUAUUUGAAAGAAAAGAAAAGAAAGAAGAAGAAGAAGGCACAAGAA [Merneith],0.0176,0.0205
AAAAAGUGAGGAUAUACGGUGAGGAGUAGACACAACCUGGCGUAGAAGGCACAUGAGGAUCACCCAUGUCCAAA [EX4 Malc#13],0.0373,0.0478
AAUGCGGCAGGAUAUACAUGAGGAUCACCCAUGUAGAUCAGAUAUAUGGGAAAACCAUGUAGAAGGGCCGCAAA [Ex 3May 60],0.109,0.0296
AGCUAGUCAGGAUAUACAAACAUGUCAAAAGACGUGAAGGGACAUGAGGAUCACCCAUGUAGAAGGGACUAGCA [Web Mod 74% 2],0.0522,0.217
GAAAAGUGAGGAUAUUCGGAUAGGAAAACGAAAACCUAUCCGAAGAAGGCACAUGAGGAUCACCCAUGUGAAAG [Mat - Exaclusion 4 - Eli mod - D43],0.028,0.0309
